Two molecules from patent US20110091449A1 (University of Pennsylvania, published 2011) can be followed below.

In assay [1] the target is T1, baculovirus-produced recombinant human Dsg4-EHis (human, UniProt Q86SJ6 50-631).
T1 construct: not shown: E-tag and histidine tag
T1 sequence (looked up): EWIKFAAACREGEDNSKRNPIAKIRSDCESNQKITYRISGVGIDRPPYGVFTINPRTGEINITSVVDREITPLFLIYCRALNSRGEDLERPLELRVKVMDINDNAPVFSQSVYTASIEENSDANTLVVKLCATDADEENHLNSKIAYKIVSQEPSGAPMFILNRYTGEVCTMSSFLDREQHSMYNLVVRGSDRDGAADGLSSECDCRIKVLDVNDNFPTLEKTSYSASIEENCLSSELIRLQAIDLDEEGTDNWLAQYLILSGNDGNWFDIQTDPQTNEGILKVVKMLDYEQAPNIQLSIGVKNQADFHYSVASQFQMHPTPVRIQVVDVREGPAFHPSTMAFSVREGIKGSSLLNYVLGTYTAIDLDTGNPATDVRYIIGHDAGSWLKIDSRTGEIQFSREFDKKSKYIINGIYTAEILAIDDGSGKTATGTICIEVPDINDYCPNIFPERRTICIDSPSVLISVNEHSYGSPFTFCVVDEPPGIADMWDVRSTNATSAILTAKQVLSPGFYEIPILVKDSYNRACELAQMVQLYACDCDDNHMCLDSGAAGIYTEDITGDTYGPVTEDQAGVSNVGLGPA
The experiment in a line: immunoprecipitation of Dsg4-EHis with scFv, anti-E tag immunoblot. The method, then:
To determine whether anti-Dsg1 scFvs also bind Dsg4, baculovirus-produced recombinant human Dsg4-EHis and human Dsg1-EHis (“EHis” tag defined above) was used (Nagasaka et al., 2004 J. Clin. Invest 114:1484-1492.). Baculovirus-infected insect cell culture supernatants containing recombinant molecules were incubated with scFvs for 30 minutes and then immunoprecipitated with anti-HA agarose (Sigma-Aldrich) at 4° C. for 2 hours with gentle rotation. After washing with TBS-Ca, the immunoprecipitates were resuspended in Laemmli sample buffer, separated by SDS-PAGE, and transferred to nitrocellulose membranes (Bio-Rad Labratories). Membranes were probed with HRP-conjugated anti-E-tag antibody (1:2000 dilution, GE Healthcare Bio-Sciences).
Some pemphigus sera bind Dsg4, and this binding was due to antibodies against Dsg1 that cross react with Dsg4. To determine whether any of the anti-Dsg1 monoclonal antibodies crossreact with Dsg4, scFvs were used to immunoprecipitate recombinant Dsg4 containing a carboxy-terminal E-epitope tag, then identified its presence on an immunoblot stained with anti-E tag antibodies.

Assay [2] concerns the target T2, recombinant human desmoglein 3 (Dsg3) on ELISA plates (MBL) (human, UniProt P32926 50-615, limits assumed).
T2 construct: Commercial Dsg3 ELISA plate (MBL)
T2 sequence (looked up): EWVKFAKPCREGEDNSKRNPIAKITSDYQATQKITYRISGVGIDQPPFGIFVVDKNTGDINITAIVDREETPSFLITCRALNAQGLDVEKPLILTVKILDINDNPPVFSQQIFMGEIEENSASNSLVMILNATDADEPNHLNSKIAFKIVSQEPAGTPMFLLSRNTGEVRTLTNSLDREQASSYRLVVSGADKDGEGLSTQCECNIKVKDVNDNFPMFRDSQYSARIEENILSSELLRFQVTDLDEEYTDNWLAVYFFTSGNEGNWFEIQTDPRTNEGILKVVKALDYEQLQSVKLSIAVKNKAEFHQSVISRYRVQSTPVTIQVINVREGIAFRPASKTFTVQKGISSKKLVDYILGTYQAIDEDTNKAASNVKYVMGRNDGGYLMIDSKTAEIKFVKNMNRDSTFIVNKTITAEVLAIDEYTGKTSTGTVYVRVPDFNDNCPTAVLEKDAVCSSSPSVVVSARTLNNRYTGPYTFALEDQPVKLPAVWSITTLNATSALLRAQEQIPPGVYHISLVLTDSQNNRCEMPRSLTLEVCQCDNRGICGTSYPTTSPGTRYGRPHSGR
The assay is described as follows: Dsg3 ELISA (MBL), soluble scFv, anti-HA detection.

B1: 3-30/3h (scFv)
scFv: ELVLTQPPSVPVAPGQTANISCGGNNIGRQTVHWYQQKPGQAPVLVVFDDSDRPAGIPERFSGSNSGNTATLTISRVEAGDEADYYCQVWDSSSDHVVFGGGTQLTVLGGGSSRSSSSGGGGSGGGGQVQLVQSGGGVVQSGRSLRLSCAASGFTFSDYAMHWVRQAPGKGLEWVAVISHGGTKKYTGDSVKGRFIISRDNSKNTVFLQMNSLRVEDTAVYYCARDRVEGYVWGGTFDHWGQGTPVTVSS
notes: VH3-30, VDJ12, VL gene 3h; pathogenic; also called PF1-8-15; VH3-30 clone
On to B1, for which the binding result in assay [1] and in assay [2] was “no binding” each time.

B2: 1-18/L12 (scFv)
scFv: ELQMTQSPSTLSASVGDRVTITCRASQGISNWLAWYQQKPGKAPKLLIHKASSLESGVPSRFSGSGSGTEFTLTISSLQPDDFATYYCQQYYTYPLTFGGGTKVEIKGGSSRSSSSGGGGSGGGGQVQLVQSGAEVKKPGASVKVSCKASGYTFTNYGITWVRQAPGQGLEWMGWISVYNGDTKYAQKLQGRVTMTTDTPTNTVYMELRSLRSDDTAVYYCARGYGSGNWDYWGQGTLVTVSS
notes: VH1-18, VDJ1, VL gene L12; also called PF1-2-6
Consider B2, for which the binding result in assay [1] and in assay [2] was “no binding” in each case.
